Results published in publication PMC3160269.

Biological target: biotinylated soluble IA^b-p3K (mouse)
Test: SPR

Kd: 9 µM
Substance: soluble YAe62 TCR
